The source of these data is publication PMC11253609, “Ancient nitrogenases are ATP dependent” (mBio, 2024).

Assay [1] addresses T1, Extant Strep-NifD2K2 (dinitrogenase, MoFe protein), Azotobacter vinelandii strain DJ2102 (Azotobacter vinelandii) (UniProt P07328).
T1 sequence 1: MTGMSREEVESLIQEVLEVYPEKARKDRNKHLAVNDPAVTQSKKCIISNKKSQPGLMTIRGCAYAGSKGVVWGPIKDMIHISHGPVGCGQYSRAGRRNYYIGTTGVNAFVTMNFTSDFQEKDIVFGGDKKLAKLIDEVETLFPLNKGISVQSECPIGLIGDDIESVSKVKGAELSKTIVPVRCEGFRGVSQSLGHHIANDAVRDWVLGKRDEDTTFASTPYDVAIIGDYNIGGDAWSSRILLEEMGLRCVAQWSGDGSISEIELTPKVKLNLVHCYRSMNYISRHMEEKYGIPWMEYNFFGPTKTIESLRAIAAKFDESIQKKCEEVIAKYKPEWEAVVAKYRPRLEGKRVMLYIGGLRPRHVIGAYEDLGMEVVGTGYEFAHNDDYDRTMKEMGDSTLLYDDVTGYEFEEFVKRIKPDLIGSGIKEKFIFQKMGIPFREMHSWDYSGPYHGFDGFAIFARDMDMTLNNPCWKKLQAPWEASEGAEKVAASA
T1 sequence 2: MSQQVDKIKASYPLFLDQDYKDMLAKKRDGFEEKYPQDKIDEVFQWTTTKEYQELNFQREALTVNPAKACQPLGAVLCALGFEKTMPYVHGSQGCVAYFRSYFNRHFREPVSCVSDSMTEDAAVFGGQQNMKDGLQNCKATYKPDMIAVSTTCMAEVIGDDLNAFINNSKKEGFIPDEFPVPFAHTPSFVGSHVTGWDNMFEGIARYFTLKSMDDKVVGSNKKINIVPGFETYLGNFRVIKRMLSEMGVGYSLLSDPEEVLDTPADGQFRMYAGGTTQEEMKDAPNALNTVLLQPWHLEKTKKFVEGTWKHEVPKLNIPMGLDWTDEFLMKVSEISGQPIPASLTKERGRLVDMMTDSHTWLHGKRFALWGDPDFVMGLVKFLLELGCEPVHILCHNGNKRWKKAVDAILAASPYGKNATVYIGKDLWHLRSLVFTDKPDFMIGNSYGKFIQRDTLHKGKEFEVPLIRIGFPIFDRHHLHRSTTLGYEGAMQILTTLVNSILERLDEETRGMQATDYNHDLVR

For assay [2], the target named is T2, Extant Strep-II-tagged NifD (nitrogenase molybdenum-iron protein alpha chain), Azotobacter vinelandii strain … (Azotobacter vinelandii, UniProt P07328 1-492).
T2 construct: nitrogenase molybdenum-iron protein alpha chain NifD, Azotobacter vinelandii, UniProtKB P07328; expressed from the A. vinelandii genome; The end that carries the Strep-II tag is stated only for the ancestral NifD (N-terminus); also called Strep-II-tagged WT NifD; D subunit
T2 sequence (looked up): T1 sequence 1
In words: co-purification (Strep-Tactin affinity chromatography) with densitometry of SDS-PAGE bands; Strep-II-tagged NifD captured on Strep-Tactin from A. vinelandii cells; NifK found with it on SDS-PAGE (Coomassie blue); anaerobic handling. Particulars: partners not purified.

Take “Extant NifH2 (dinitrogenase reductase, nitrogenase iron protein 1), Azotobacter vinelandii strain DJ884 (from UniProt P00459 2-290) (enzyme)”: the inorganic phosphate released per electron transferred (Pi/e- ratio) during N2 reduction, 2 min under 1 atm N2; 0.42 µM NifD2K2 and 8.4 µM NifH2, 10 mM MgATP in assay [1] was determined as 2.8 ATP/e-.

B1: Extant NifK (nitrogenase molybdenum-iron protein beta chain), Azotobacter vinelandii strain DJ2102 (enzyme, UniProt P07329 1-523, looked up)
chain: T1 sequence 2
notes: nitrogenase molybdenum-iron protein beta chain NifK, Azotobacter vinelandii, UniProtKB P07329; also called K subunit
With B1, the “stoichiometry N” value in assay [2] is 0.93 D:K.
